T1: TG2 (transglutaminase 2), His6-tagged (Homo sapiens, UniProt P21980 1-687)
T1 sequence: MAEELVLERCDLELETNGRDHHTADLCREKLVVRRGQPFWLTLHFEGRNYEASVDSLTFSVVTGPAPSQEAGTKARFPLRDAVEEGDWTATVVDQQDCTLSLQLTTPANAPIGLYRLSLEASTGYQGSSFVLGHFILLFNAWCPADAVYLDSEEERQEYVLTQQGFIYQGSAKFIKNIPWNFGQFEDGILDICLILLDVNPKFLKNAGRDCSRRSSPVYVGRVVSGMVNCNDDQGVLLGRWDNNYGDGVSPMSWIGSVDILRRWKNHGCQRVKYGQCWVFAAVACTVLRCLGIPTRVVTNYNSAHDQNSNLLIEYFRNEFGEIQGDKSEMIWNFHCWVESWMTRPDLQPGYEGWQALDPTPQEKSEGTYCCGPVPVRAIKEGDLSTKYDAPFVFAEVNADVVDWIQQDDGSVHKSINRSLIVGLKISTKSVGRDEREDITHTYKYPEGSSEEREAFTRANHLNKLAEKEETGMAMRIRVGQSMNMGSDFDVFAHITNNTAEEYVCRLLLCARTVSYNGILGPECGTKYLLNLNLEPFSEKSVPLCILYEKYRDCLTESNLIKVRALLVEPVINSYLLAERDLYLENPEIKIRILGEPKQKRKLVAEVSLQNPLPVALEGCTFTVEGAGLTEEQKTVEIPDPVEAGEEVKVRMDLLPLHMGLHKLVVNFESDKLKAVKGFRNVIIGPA

T2: TG2 (transglutaminase 2), tag-free (Homo sapiens, UniProt P21980 1-687)
T2 sequence: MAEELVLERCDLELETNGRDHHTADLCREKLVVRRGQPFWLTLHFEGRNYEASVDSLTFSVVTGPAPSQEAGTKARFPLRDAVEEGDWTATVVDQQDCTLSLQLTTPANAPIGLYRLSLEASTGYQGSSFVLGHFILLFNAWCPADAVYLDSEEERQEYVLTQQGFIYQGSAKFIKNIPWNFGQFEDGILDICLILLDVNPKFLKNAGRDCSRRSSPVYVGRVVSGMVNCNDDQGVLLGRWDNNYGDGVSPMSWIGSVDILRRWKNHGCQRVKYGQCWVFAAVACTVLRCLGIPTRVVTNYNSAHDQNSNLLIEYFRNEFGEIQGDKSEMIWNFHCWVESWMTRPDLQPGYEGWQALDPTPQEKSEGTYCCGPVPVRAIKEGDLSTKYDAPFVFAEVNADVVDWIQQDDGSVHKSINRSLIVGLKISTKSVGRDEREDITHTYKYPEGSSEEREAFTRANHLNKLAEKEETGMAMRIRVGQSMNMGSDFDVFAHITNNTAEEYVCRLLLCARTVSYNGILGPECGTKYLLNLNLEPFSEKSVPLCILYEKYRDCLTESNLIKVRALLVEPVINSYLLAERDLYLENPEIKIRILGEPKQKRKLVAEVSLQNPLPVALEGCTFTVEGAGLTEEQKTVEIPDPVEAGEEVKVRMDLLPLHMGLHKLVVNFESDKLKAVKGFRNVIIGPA


Experiments:
[1] = target: T1, TG2 (transglutaminase 2), His6-tagged; assay: pull-down
[2] = target: T2, TG2 (transglutaminase 2), tag-free; assay: BLI

Row | Binder | binding result [1] | Kd [2]
1 | GGGGGGAGGGGGGAGGGGGGAGGGGGGAGGGGGGAGGGGGGAGGGGGGA (ssDNA) [poly(dG) 3' End Biotin] | binds | 
2 | AAAAAAAAAAAAAAAAAAAAAAAAAAAAAAAAAAAAAAAAAAAAAAAAA (ssDNA) [poly(dA) 3' End Biotin] | no binding | 
3 | CCUGGUUUUUAAGGAGUGUCGCCAGAGUGCCGCGAAUGAAAAAC (structured_RNA) [43-mer RNA 3' End Biotin] |  | 88 nM
